Source: US20170306036A1 (ENGMAB, published 2017)
“And” between values parts separate entries of the source, which are not always exact repeats. Equal values may be shown once.

Experiments:
[1] = target: T1, recombinant human BCMA Fc(kih) (human, UniProt Q02223 4-53, biotinylated at the avi-tag at the C-terminus of the Fc knob chain ; Biotinylated in vivo (BirA) at the avi-tag at the C-terminus of the Fc knob chain. That part is not in the letters.); experiment: SPR (Biacore T200, 25 C), IgG captured on anti-human Fab chip, BCMA Fc(kih) as analyte, 1:1 Langmuir fit
T1 construct: Monomeric Fc fusion made by knobs-into-holes; also called huBCMA Fc(kih); biotinylated human BCMA; not shown: Human IgG1 hinge-Fc knob chain with C-terminal avi-tag, and the unfused human IgG1 Fc hole chain
Experimental: The affinity of the interaction between anti-BCMA antibodies and recombinant human BCMA Fc(kih) was also determined. Anti-human Fab antibody (GE Healthcare) was directly coupled on a CMS chip at pH 5.0 using the standard amine coupling kit (Biacore, Freiburg/Germany). The immobilization level was about 6500 RU. […] Recombinant human BCMA Fc(kih) was passed at a […] concentration range (1.95 to 500 nM) with a flow of 30 μL/minutes through the flow cells over 120 seconds. The dissociation was monitored for 120 seconds. Bulk refractive index differences were corrected for by subtracting the response obtained on reference flow cell. […] Kinetic constants were derived using the Biacore T100 Evaluation Software (vAA, Biacore AB, Uppsala/Sweden), to fit rate equations for 1:1 Langmuir binding by numerical integration (Table 7).

[2] = target: T1, recombinant human BCMA Fc(kih); experiment: SPR (ProteOn XPR36, 25 C), biotinylated BCMA Fc(kih) on NLC chip, Fab as analyte, monovalent affinity
Experimental: Buffer (PBST) was injected along the sixth channel to provide an “in-line” blank for referencing. Association rate constants (kon) and dissociation rate constants (koff) were calculated using a simple one-to-one Langmuir binding model in ProteOn Manager v3.1 software by simultaneously fitting the association and dissociation sensorgrams. The equilibrium dissociation constant (KD) was calculated as the ratio koff/kon.

[3] = target: T1, recombinant human BCMA Fc(kih); experiment: competition ELISA: 500 or 1000 nM Fab on plate-bound biotinylated human BCMA; competitor murine APRIL 50 nM/1200 ng/mL; bound Fab read as OD450
Experimental: 500 nM or 1000 nM purified Fabs were added to saturate the coated human BCMA for 1 h at room temperature. […] The plate was washed 3 times with PBS and anti-FLAG-HRP secondary antibody (1:4000) was added for 1 h. Again, the plate was washed 3 times with PBS and developed by adding 100 ul/well BM Blue POD (Roche). The reaction was stopped by adding 50 ul/well 1M H₂SO₄ and the OD was read at 450 nm (reference at 650 nm) for a final read-out of OD₄₅₀₋₆₅₀.

[4] = target: T2, human BCMA stably expressed on HEK293T cells (huBCMA-HEK293T) (human, UniProt Q02223 1-184)
T2 sequence (looked up): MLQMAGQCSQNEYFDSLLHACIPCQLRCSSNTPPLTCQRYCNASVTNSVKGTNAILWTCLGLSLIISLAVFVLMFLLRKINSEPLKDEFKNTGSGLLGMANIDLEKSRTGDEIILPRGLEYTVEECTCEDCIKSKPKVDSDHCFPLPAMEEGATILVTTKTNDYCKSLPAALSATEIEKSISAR

[5] = target: T3, cynomolgus BCMA stably expressed on HEK293T cells (cynoBCMA-HEK293T) (cynomolgus, UniProt A0A2K5UD97 1-183)
T3 sequence (A0A2K5UD97 entry or part of it): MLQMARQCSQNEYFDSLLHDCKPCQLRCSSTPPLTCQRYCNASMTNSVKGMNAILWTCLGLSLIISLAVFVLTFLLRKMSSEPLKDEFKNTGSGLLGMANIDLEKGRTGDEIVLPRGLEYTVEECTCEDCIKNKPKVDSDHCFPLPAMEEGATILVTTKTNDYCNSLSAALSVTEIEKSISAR

[6] = target: T4, human BCMA on human myeloma cells (H929, L363, RPMI-8226, JJN-3, patient myeloma plasma cells) (human, UniProt Q02223 1-184)
T4 sequence (looked up): T2 sequence (looked up)

[7] = target: T4, human BCMA on human myeloma cells …; experiment: cell-based or functional assay
[8] = target: T3, cynomolgus BCMA stably expressed on …; experiment: cell-based or functional assay
[9] = target: T4, human BCMA on human myeloma cells …; experiment: cell-based or functional assay; remark: listed apart in the source
[10] = target: T4, human BCMA on human myeloma cells …; experiment: cell-based or functional assay; remark: listed apart in the source
[11] = target: T5, human CD3ε on Jurkat T cells (human, UniProt P07766 23-207); experiment: flow cytometry on CD3-positive Jurkat T cells
T5 construct: whole, on cells; On cells it is part of the TCR/CD3 complex; also called CD3-positive Jurkat T cells
T5 sequence (P07766 23-207): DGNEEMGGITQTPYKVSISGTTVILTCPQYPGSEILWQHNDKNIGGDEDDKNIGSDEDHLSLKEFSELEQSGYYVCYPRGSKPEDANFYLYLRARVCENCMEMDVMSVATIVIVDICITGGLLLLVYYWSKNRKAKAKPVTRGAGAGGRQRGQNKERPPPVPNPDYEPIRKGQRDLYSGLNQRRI
Experimental: Jurkat T cells were cultured in RPMI supplemented with 10% heat-inactivated FCS. Briefly, cultured cells were harvested, counted and cell viability was evaluated using ViCell. Viable cells were then adjusted to 2×10⁶ cells per ml in FACS Stain Buffer (BD Biosciences) containing 0.1% BSA. 100 μl of this cell suspension were further aliquoted per well into a round-bottom 96-well plate. 30 μl of the anti-BCMA/anti-CD3 TCB antibodies or corresponding IgG control were added to the cell-containing wells to obtain final concentrations of 3 nM to 500 nM or 0.1 pM to 200 nM. Anti-BCMA/anti-CD3 TCB antibodies and control IgG were used at the same molarity. After incubation for 30 min at 4° C., cells were centrifuged (5 min, 350×g), washed twice with 150 μl/well BSA-containing FACS Stain Buffer (BD Biosciences), then cells were fixed using 100 ul BD Fixation buffer per well (#BD Biosciences, 554655) at 4° C. for 20 min, resuspended in 120 μl FACS buffer and analyzed using BD FACS Cantoll. Binding of the anti-BCMA/anti-CD3 TCB antibodies to T cells were evaluated and the median fluorescence intensity was determined gated on CD3-expressing Jurkat T cells and plotted in histograms or dot plots.

B1: 13A4 anti-BCMA IgG (antibody, V domains shown)
VH: EVQLVQSGAEVKKPGESLKISCKGSGYSFTSYWIGWVRQMPGKGLEWMGIIYPGDSDTRYSPSFQGQVTISADKSISTAYLQWSSLKASDTAMYYCARNGYLGDYWGQGTLVTVSS
VL: not shown
notes: also called anti-BCMA antibody clone 13A4; MAB 13A4
Kd [1]: 5.1 nM | koff [1]: 0.00036 s⁻¹ | kon [1]: 72000 M⁻¹ s⁻¹

B2: anti-BCMA Fab clone 13A4 (Fab, V domains shown)
VH: B1 VH
VL: not shown
notes: Phage-display Fab (Vk2D_28/VH5_1), bacterially expressed
Kd [2]: 1.8 nM | reduction in OD (450 nm) in absence vs. presence of murine Δ-APRIL [3]: 13.1%

B3: 83A10-TCBcv (anti-BCMA/anti-CD3 T cell bispecific antibody, 2+1 Fc-containing, with charge variant) (bispecific antibody, human IgG1, kappa, L234A L235A)
heavy 1: not shown
heavy 2: not shown
light 1: EVQLLESGGGLVQPGGSLRLSCAASGFTFSTYAMNWVRQAPGKGLEWVSRIRSKYNNYATYYADSVKGRFTISRDDSKNTLYLQMNSLRAEDTAVYYCVRHGNFGNSYVSWFAYWGQGTLVTVSSASVAAPSVFIFPPSDEQLKSGTASVVCLLNNFYPREAKVQWKVDNALQSGNSQESVTEQDSKDSTYSLSSTLTLSKADYEKHKVYACEVTHQGLSSPVTKSFNRGEC
light 2: not shown
notes: also called 83A10-TCVcv
EC50 [4]: 15.6 nM | EC50 [5]: 7.8 nM | EC50 [6]: ~17.4 nM and ~2.51 µg/mL | EC50 of Granzyme B secretion, PBMC + RPMI-8226 cells (CBA) [7]: 0.34 nM | EC50 of IL-10 secretion, PBMC + RPMI-8226 cells (CBA) [7]: 0.3 nM | EC50 of TNF-α secretion, PBMC + RPMI-8226 cells (CBA) [7]: 0.52 nM | EC50 of lysis of cynoBCMA-HEK cells (LDH release), cyno PBMCs donor 1 [8]: 0.0035 nM | EC50 of lysis of cynoBCMA-HEK cells (LDH release), cyno PBMCs donor 2 [8]: 0.0027 nM | mean EC50 of lysis of cynoBCMA-HEK cells (LDH release) [8]: 0.0031 nM | EC50 of redirected T-cell killing of RPMI-8226 cells (LDH release), Donor 2 [9]: 0.621 nM | EC50 of redirected T-cell killing of RPMI-8226 cells (LDH release), Donor 3 [9]: 0.229 nM | EC50 of redirected T-cell killing of RPMI-8226 cells (LDH release), Donor 4 [9]: 0.035 nM | EC50 of redirected T-cell killing of RPMI-8226 cells (LDH release), Donor 5 [9]: 0.0649 nM | EC50 for reduction of viable (annexin-V negative) myeloma plasma cells, bone marrow aspirate Patient 001 [10]: 1 nM | EC50 for reduction of viable (annexin-V negative) myeloma plasma cells, bone marrow aspirate Patient 002 [10]: 8.24 nM | EC50 for reduction of viable (annexin-V negative) myeloma plasma cells, bone marrow aspirate Patient 003 [10]: 8.02 nM | binding result [11]: binds

B4: 17A5-TCBcv (anti-BCMA/anti-CD3 T cell bispecific antibody, 2+1 Fc-containing, with charge variant) (bispecific antibody, human IgG1, kappa, L234A L235A)
heavy 1: not shown
heavy 2: not shown
light 1: B3 light 1
light 2: not shown
binding result [11]: binds
